Results on three molecules are retold here after article PMC8517388.

Series [1] deals with TROP-2 ectodomain expressed in insect cells (TROP-2-ECD-insect) (human) (UniProt P09758). Nature of the series: ITC. Background: Isothermal titration calorimetry measures the heat released or taken up as one component is titrated into another.
Series [2] shares this target. Nature of the series: crystal structure.
The target is the same in series [3]. Nature of the series: crystal structure. This is another data set of the same source.
Series [4] deals with TROP-2 ectodomain expressed in HEK-293T cells (TROP-2-ECD-293T) (human) (UniProt P09758). Nature of the series: crystal structure.
The target is the same in series [5]. Nature of the series: crystal structure. This is another data set of the same source.
Series [6] in a line: BS3 cross-linking, SDS-PAGE. To be noted: glycan changed form; control: TROP-2-ECD from HEK-293T cells.

Read-outs that look alike come from different tables or passages of the source.

On to “TROP-2 ectodomain expressed in insect cells (TROP-2-ECD-insect) (from UniProt P09758 27-274) (domain or fragment)”, for which, in series [1], the dissociation constant (Kd) stood at 402 µM and the dH came out at 9.14 kcal/mol. Further, the stoichiometry N in series [2] was 2. In series [3], this molecule gave a stoichiometry N of 4.

Turning to “TROP-2 ectodomain expressed in HEK-293T cells (TROP-2-ECD-293T) (from UniProt P09758 27-274) (domain or fragment)”, the stoichiometry N in series [4] worked out at 2; in series [5] it was 4.

B1: TROP-2 (trophoblast cell surface antigen 2) ectodomain, TROP-2-ECD: expression in insect cells (protein)
parent chain: MARGPGLAPPPLRLPLLLLVLAAVTGHTAAQDNCTCPTNKMTVCSPDGPGGRCQCRALGSGMAVDCSTLTSKCLLLKARMSAPKNARTLVRPSEHALVDNDGLYDPDCDPEGRFKARQCNQTSVCWCVNSVGVRRTDKGDLSLRCDELVRTHHILIDLRHRPTAGAFNHSDLDAELRRLFRERYRLHPKFVAAVHYEQPTIQIELRQNTSQKAAGDVDIGDAAYYFERDIKGESLFQGRGGLDLRVRGEPLQVERTLIYYLDEIPPKFSMKRLTAGLIAVIVVVVVALVAGMAVLVITNRRKSGKYKKVEIKELGELRKEPSL
Take B1: the oligomerisation entry in series [6] is on record as “no change”.

What is called Kd is a measure of binding affinity in units of concentration. A high value points to lower affinity. For orientation: stoichiometry N means the number of molecules, sites or subunits per partner or assembly.
